As usually defined, the Kd is a measure of binding affinity in units of concentration. A low value points to higher affinity.

Consider one substance from patent US20060024300A1.

In experiment [1] the target is CD20 (human) (UniProt P11836). Description: cell-based or functional assay.
Experiment [2] has as its target CD20 (human) (UniProt P11836). Briefly: Scatchard analysis, cold antibody against 125I-2H7.v16 on WIL2-S cells.

CD20 (human), sequence (P11836 whole entry): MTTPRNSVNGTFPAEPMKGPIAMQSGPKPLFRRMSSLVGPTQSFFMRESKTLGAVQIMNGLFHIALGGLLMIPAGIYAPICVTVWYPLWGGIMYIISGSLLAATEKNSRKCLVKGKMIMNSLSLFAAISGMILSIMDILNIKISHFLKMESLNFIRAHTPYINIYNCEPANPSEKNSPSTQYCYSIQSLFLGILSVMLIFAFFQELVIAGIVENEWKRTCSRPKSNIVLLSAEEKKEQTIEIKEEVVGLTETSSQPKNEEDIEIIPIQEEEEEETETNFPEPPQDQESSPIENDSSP

Take Rituxan (rituximab) (antibody): in the experiment with CD20 (human) [1], the ADCC on WIL2-S cells, EC50(variant)/EC50(2H7.v16) amounted to 5.3; the ADCC on WIL2-S cells, EC50(variant)/EC50(Rituxan) was 1; the CDC on WIL2-S cells, EC50(variant)/EC50(Rituxan) stood at 1; the fraction of Annexin V stained Ramos cells at 10 nM crosslinked antibody amounted to 16.5%. In the experiment with CD20 (human) [1], this substance showed a fraction of doubly labeled (Annexin V and propidium iodide) Ramos cells at 10 nM of 38%; a live Ramos cells counted per 10 s at 10 nM (cells per 10 s) of 3100. Moreover, in the experiment with CD20 (human) [2], the Kd amounted to 0.99 nM.
